This is an account of results in paper PMC12786156.

For the test, the target named is Xyloglucanase TpXEG12a from Talaromyces pinophilus (Talaromyces pinophilus). The experiment in a line: SEC; gel filtration on Superdex 75 Increase, 20 mM Tris-HCl, 150 mM NaCl, pH 7.5; calibrated with molecular mass standards.

“Xyloglucanase TpXEG12a from Talaromyces pinophilus (enzyme)” showed a stoichiometry N of 2.
